Laboratory results from patent publication US11332546B2, “Protease inhibitory antibodies and methods of use thereof” (The Regents of The University of California, priority 2019, dated 2022).

Key:
MMP-7 = target: T1, MMP-7 (Homo sapiens, UniProt P09237); assay: FRET peptide inhibition assay, MMP-7; format: biochemical; settings: listed as LH6
T1 construct: purchased AnaSpec
T1 sequence (P09237 95-267): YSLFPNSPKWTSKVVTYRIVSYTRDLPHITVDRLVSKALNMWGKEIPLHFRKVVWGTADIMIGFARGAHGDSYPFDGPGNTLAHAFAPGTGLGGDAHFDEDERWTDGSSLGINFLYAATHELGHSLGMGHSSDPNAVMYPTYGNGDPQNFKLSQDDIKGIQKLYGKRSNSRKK
Procedure: (§1) FRET peptide inhibition assays In 96-well assay plates (Corning), 60/250/350/10/10/30 nM of (cd)MMP-1/-7/-9/-12 D4/-12 wt/-14 were preincubated with 1 nM-1 μM purified Fabs for 30 min at room temperature then 1 μM substrate M-2350 (Bachem) was added. Generated fluorescent signals (λEx=328 nm, λEm=393 nm) were monitored at 37° C. to measure the initial velocities. To calculate inhibition constants (KIs), data were fit with the equations for slow tight-binding inhibitors. The inhibition type of the Fabs was determined using the initial velocities of cdMMP-12 D4 as a function of substrate concentration (250-2000 nM) at various Fab concentrations (31-500 nM). The values of Vmax and Km were derived from linearization in accordance with the Lineweaver-Burk equation.

MMP-1 = target: T2, MMP-1 (Homo sapiens, UniProt P03956); assay: FRET peptide inhibition assay, MMP-1; format: biochemical; settings: listed as LH6
T2 construct: purchased AnaSpec
T2 sequence (P03956 100-469): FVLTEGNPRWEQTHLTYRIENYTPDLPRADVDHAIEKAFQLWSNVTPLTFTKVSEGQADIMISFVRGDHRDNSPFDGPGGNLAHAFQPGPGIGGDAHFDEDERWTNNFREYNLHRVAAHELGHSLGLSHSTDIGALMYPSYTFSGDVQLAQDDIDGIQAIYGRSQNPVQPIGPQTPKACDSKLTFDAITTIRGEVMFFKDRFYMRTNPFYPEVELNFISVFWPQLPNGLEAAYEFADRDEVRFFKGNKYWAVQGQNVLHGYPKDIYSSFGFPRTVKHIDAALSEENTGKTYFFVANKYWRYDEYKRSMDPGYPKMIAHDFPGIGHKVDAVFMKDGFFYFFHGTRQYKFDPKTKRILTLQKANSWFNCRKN
Procedure: as §1

cdMMP-12 mutant D4 [1] = target: T3, cdMMP-12 mutant D4 (Homo sapiens, UniProt P39900, A167E/A173P/A252Q/H206S/I245T/K233R/M156E/N119Q/N126H/R135E/T215V/V161I/Y113D/Y132K); assay: FRET peptide inhibition assay, cdMMP-12 D4; format: biochemical; settings: cdMMP-12 D4, FRET peptide, 31-500 nM Fab
T3 construct: hexahistidine (C); made in house; host or cells: E. coli BL21, pET32b (cytoplasmic, soluble fraction)
T3 sequence (P39900 106-263 Y113D/N119Q/N126H/Y132K/R135E/M156E/V161I/A167E/A173P/H206S/T215V/K233R/I245T/A252Q): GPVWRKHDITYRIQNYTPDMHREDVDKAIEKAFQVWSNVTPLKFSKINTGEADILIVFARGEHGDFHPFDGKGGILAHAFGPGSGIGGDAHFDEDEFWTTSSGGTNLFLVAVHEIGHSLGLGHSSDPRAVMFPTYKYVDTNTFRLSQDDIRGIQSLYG
Procedure: as §1

cdMMP-9 [2] = assay: FRET peptide inhibition assay, cdMMP-9 (Example 2); format: biochemical
Sequence of cdMMP-9 (P14780 with tags, fused parts or gaps DEL216-390 limits assumed): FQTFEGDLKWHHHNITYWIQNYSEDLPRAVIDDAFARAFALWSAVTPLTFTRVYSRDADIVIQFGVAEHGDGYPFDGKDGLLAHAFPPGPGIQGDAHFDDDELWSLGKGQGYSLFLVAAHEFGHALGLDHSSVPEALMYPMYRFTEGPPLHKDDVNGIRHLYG
Procedure: as §1

cdMMP-12 mutant D4 [3] = target: T3, cdMMP-12 mutant D4; assay: Proteolytic stability of Fabs with cdMMP-12 D4; format: physicochemical; settings: 2 μM Fab, 2 μM cdMMP-12 D4, 4 h, 37° C.
Procedure: (§2) Proteolytic stability tests 2 μM purified Fabs were incubated with 2 μM cdMMP-12 wt/D4 in 50 mM HEPES, 150 mM NaCl pH 7.5 at 37° C. for 4 h. Samples were analyzed by using 12% non-reducing SDS-PAGE and stained with Coomassie blue. Densitometric interpretation was conducted using a ChemiDoc imager (Bio-Rad).

cdMMP-12 wt [4] = target: T4, cdMMP-12 wt (Homo sapiens, UniProt P39900); assay: FRET peptide inhibition assay, cdMMP-12 wt; format: biochemical; settings: toward cdMMP-12 wild type; listed as LH6
T4 construct: hexahistidine (C); made in house; host or cells: E. coli BL21 (pET32b, cytoplasmic)
T4 sequence (P39900 106-263): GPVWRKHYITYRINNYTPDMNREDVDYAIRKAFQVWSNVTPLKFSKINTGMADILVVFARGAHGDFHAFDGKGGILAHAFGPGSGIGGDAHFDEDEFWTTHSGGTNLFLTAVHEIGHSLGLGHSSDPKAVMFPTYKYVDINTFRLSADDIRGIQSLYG
Procedure: as §1

cdMMP-12 wt [5] = target: T4, cdMMP-12 wt; assay: Fibronectin proteolysis inhibition, cdMMP-12 wt (western blot); format: biochemical
cdMMP-12 wt [6] = target: T4, cdMMP-12 wt; assay: Proteolytic stability of Fabs with cdMMP-12 wt; format: physicochemical; settings: 2 μM Fab, 2 μM cdMMP-12 wt, 4 h, 37° C.
Procedure: as §2

cdMMP-9 [7] = assay: Bio-layer interferometry on cdMMP-9; format: binding
cdMMP-14 [8] = target: T5, cdMMP-14 (Homo sapiens, UniProt P50281); assay: FRET peptide inhibition assay, cdMMP-14 (Example 2); format: biochemical; set-up: human MMP-14 (residue 114-320); hexahistidine (C); made in house; host or cells: E. coli periplasm
Procedure: as §1

cdMMP-14 [9] = target: T5, cdMMP-14; assay: Bio-layer interferometry on cdMMP-14; format: binding; set-up: human MMP-14 (residue 114-320); hexahistidine (C); made in house; host or cells: E. coli periplasm

B1: Fab LH6: anti-MMP-12 antibody clone; VL SEQ ID NO:118, VH SEQ ID NO:120, CDR-H3 SEQ ID NO:123 (antibody, V domains shown)
VH: EVQLVESGGGLVQPGGSLRLSCAASGFNLSYSYMHWVRQAPGKGLEWVASIYPSYGSTYYADSVKGRFTISADTSKNTAYLQMNSLRAEDTAVYYCARDLEESLPKRARTAVSKELESVPYVMDYWGQGTLVTVSSAS
VL: DIQMTQSPSSLSASVGDRVTITCRASQSVSSAVAWYQQKPGKAPKLLIYSASSLYSGVPSRFSGSRSGTDFTLTISSLQPEDFATYYCQQSSHYASPPITFGQGTKVEIKR
MMP-7
  Inhibition of MMP-7 (selectivity): did not inhibit and non-
MMP-1
  Inhibition of MMP-1 (selectivity): did not inhibit and non-
cdMMP-12 mutant D4 [1]
  Type of inhibition (Lineweaver-Burk): substrate competitive manner
cdMMP-9 [2]
  K1 fold, cdMMP-9 compared with cdMMP-12 mutant D4: (16-fold)
cdMMP-9 [2]; FRET peptide, read-out: K1 toward cdMMP-9
  Ki: 1500 nM
cdMMP-12 mutant D4 [3]
  Degradation of Fab by cdMMP-12 D4: no significant degradation
cdMMP-12 wt [4]
  Inhibition FRET peptide: non-
cdMMP-12 wt [5]; 6 μM Fab, 350 nM wt cdMMP-12, 200 nM fibronectin, 37° C.
  Fibronectin remaining after cdMMP-12 wt hydrolysis: significant amounts of fibronectin remained
cdMMP-12 wt [5]; toward cdMMP-12 wild type, 200 nM enzyme, 200 nM fibronectin
  Inhibition Fibronectin IC50: Inhib.
cdMMP-12 wt [6]
  Fab remained intact after exposure to cdMMP-12 wt: 56%
cdMMP-9 [7]
  KD fold, cdMMP-9 compared with cdMMP-12 wt: (2.2-fold),
cdMMP-9 [7]; read-out: KD toward cdMMP-9
  Kd: 950 nM
cdMMP-14 [8]
  K1 fold, cdMMP-14 compared with cdMMP-12 mutant D4: (52-fold)
cdMMP-14 [9]
  KD fold, cdMMP-14 compared with cdMMP-12 wt: (1.1-fold),
